Columns and labels:
[1] = biological target: GST-Rheb wild type (recombinant, human Rheb)
Chain of GST-Rheb wild type (recombinant, human Rheb) (chain, as listed by the source): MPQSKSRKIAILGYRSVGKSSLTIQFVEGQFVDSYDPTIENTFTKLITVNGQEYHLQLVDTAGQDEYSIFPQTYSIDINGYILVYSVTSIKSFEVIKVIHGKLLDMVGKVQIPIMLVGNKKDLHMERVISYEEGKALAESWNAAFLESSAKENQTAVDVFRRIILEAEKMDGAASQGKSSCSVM

B1: FLAG-TSC1 and FLAG-TSC2 (TSC complex) (protein)
chain 1: MAQQANVGELLAMLDSPMLGVRDDVTAVFKENLNSDRGPMLVNTLVDYYLETSSQPALHILTTLQEPHDKHLLDRINEYVGKAATRLSILSLLGHVIRLQPSWKHKLSQAPLLPSLLKCLKMDTDVVVLTTGVLVLITMLPMIPQSGKQHLLDFFDIFGRLSSWCLKKPGHVAEVYLVHLHASVYALFHRLYGMYPCNFVSFLRSHYSMKENLETFEEVVKPMMEHVRIHPELVTGSKDHELDPRRWKRLETHDVVIECAKISLDPTEASYEDGYSVSHQISARFPHRSADVTTSPYADTQNSYGCATSTPYSTSRLMLLNMPGQLPQTLSSPSTRLITEPPQATLWSPSMVCGMTTPPTSPGNVPPDLSHPYSKVFGTTAGGKGTPLGTPATSPPPAPLCHSDDYVHISLPQATVTPPRKEERMDSARPCLHRQHHLLNDRGSEEPPGSKGSVTLSDLPGFLGDLASEEDSIEKDKEEAAISRELSEITTAEAEPVVPRGGFDSPFYRDSLPGSQRKTHSAASSSQGASVNPEPLHSSLDKLGPDTPKQAFTPIDLPCGSADESPAGDRECQTSLETSIFTPSPCKIPPPTRVGFGSGQPPPYDHLFEVALPKTAHHFVIRKTEELLKKAKGNTEEDGVPSTSPMEVLDRLIQQGADAHSKELNKLPLPSKSVDWTHFGGSPPSDEIRTLRDQLLLLHNQLLYERFKRQQHALRNRRLLRKVIKAAALEEHNAAMKDQLKLQEKDIQMWKVSLQKEQARYNQLQEQRDTMVTKLHSQIRQLQHDREEFYNQSQELQTKLEDCRNMIAELRIELKKANNKVCHTELLLSQVSQKLSNSESVQQQMEFLNRQLLVLGEVNELYLEQLQNKHSDTTKEVEMMKAAYRKELEKNRSHVLQQTQRLDTSQKRILELESHLAKKDHLLLEQKKYLEDVKLQARGQLQAAESRYEAQKRITQVFELEILDLYGRLEKDGLLKKLEEEKAEAAEAAEERLDCCNDGCSDSMVGHNEEASGHNGETKTPRPSSARGSSGSRGGGGSSSSSSELSTPEKPPHQRAGPFSSRWETTMGEASASIPTTVGSLPSSKSFLGMKARELFRNKSESQCDEDGMTSSLSESLKTELGKDLGVEAKIPLNLDGPHPSPPTPDSVGQLHIMDYNETHHEHS
chain 2: not shown
For B1, the “GAP assay: hydrolysis of Rheb-bound [alpha-32P]GTP to GDP (thin-layer chromatography)” value (from here on “GAP assay: hydrolysis of Rheb-bound”) (GST-Rheb G63A) was “TSC1/TSC2 were completely unable to promote hydrolysis of GTP bound to the S21L, T23M, Y35N, E40K and G63A mutants”, the “GAP assay: hydrolysis of Rheb-bound” value (GST-Rheb G29S) was “partial resistance to them was seen for Rheb mutants G29S and Q64L” and the “GAP assay: hydrolysis of Rheb-bound” value [1] was “Incubation with FLAG-TSC1 and FLAG-TSC2 led to hydrolysis of Rheb-GTP into Rheb-GDP”. For the same protein, the “GAP assay: hydrolysis of Rheb-bound” value (GST-Rheb T23M) was “TSC1/TSC2 were completely unable to promote hydrolysis of GTP bound to the S21L, T23M, Y35N, E40K and G63A mutants”, the “GAP assay: hydrolysis of Rheb-bound” value (GST-Rheb Y35N) was “TSC1/TSC2 were completely unable to promote hydrolysis of GTP bound to the S21L, T23M, Y35N, E40K and G63A mutants” and the “GAP assay: hydrolysis of Rheb-bound” value (GST-Rheb E40K) was “TSC1/TSC2 were completely unable to promote hydrolysis of GTP bound to the S21L, T23M, Y35N, E40K and G63A mutants”. For the same protein, the “GAP assay: hydrolysis of Rheb-bound” value (GST-Rheb S21L) was “TSC1/TSC2 were completely unable to promote hydrolysis of GTP bound to the S21L, T23M, Y35N, E40K and G63A mutants” and the “GAP assay: hydrolysis of Rheb-bound” value (GST-Rheb Q64L) was “partial resistance to them was seen for Rheb mutants G29S and Q64L”.
